Measured values reported in paper PMC11897055.

Settings: other: succinylation at K130

Substance | enzymatic_activity | localisation_or_trafficking | degradation_or_half_life
superoxide dismutase 2 (SOD2): K130R | decreases | decreases | –
superoxide dismutase 2 (SOD2): ST1326 (CPT1A inhibitor, 10 μM, 48 h) | decreases | – | –
superoxide dismutase 2 (SOD2): CPT1A knockdown | decreases | decreases | no change
